Measured values: publication PMC8913647

How the values were obtained:
[1] = biological target: major capsid protein VP1 of GII.4 norovirus Houston/TCH186/2002 (HOV), assembled as virus-like particle (human norovirus GII.4 (Houston/TCH186/2002, HOV)); assay: crystal structure; GII.4 HOV VLP crystallised by hanging-drop vapor diffusion at room temperature; space group I222, 45 VP1 copies in the asymmetric unit, refined with NCS without imposing icosahedral symmetry; 3.0 Å
[2] = biological target: major capsid protein VP1 of GII.4 norovirus Houston/TCH186/2002 (HOV), assembled as virus-like particle (human norovirus GII.4 (Houston/TCH186/2002, HOV)); assay: cryo-EM structure; GII.4 HOV VLPs (0.24 mg/ml) in PBS pH 6.0 on graphene oxide coated grids; single-particle reconstruction with icosahedral symmetry imposed (cryoSPARC); ~3.8 Å

major capsid protein VP1 of GII.4 norovirus Houston/TCH186/2002 (HOV), assembled as virus-like particle (natural protein)
stoichiometry N [1]: 180 | stoichiometry N [2]: 180
